For test [1], the target named is plasminogen-binding group A streptococcal M-protein (Streptococcus pyogenes (GAS isolate AP53)). Put plainly: SPR; PAM amine-coupled on a CM-5 chip (up to 250 RU); Pg flowed at 0-50 nM (hPg[D219N] up to 300 nM); 25 °C; HBS-EP+ (10 mM Na-Hepes/150 mM NaCl/3 mM EDTA/0.05% polysorbate 20, pH 7.4); 1:1 Langmuir fit; KD from koff/kon.
For test [2], the target named is hPg[D219N] (human Pg with a [D219N] mutation) (human).
Test [3] deals with human plasminogen (human).
In test [4] the target is mHC-hLC (mouse heavy chain-human light chain) chimeric plasminogen (mouse | human) (UniProt P00747).
Test [5] has as its target hHC-mLC (human heavy chain-mouse light chain) chimeric plasminogen (human | mouse) (UniProt P00747). In words: SPR; each Pg amine-coupled on a CM-5 chip (~1200 RU); SK1 flowed at 0-0.25 uM, SK2b at 0-2 uM; 25 °C; HBS-EP+ with 50 uM p-nitrophenyl-p'-guanidinobenzoate; 1:1 Langmuir fit; KD from koff/kon.
In test [6] the target is hPg[D219N] (human Pg with a [D219N] mutation) (human). The description is as above.
In test [7] the target is human plasminogen (human). The description is as above.
The target in test [8] is mHC-hLC (mouse heavy chain-human light chain) chimeric plasminogen (mouse | human) (UniProt P00747). The test is described as above.
In test [9] the target is mouse plasminogen (mouse). Described as above.

Chain of plasminogen-binding group A streptococcal M-protein (Streptococcus pyogenes (GAS isolate AP53)) (P49054 30-380 limits assumed): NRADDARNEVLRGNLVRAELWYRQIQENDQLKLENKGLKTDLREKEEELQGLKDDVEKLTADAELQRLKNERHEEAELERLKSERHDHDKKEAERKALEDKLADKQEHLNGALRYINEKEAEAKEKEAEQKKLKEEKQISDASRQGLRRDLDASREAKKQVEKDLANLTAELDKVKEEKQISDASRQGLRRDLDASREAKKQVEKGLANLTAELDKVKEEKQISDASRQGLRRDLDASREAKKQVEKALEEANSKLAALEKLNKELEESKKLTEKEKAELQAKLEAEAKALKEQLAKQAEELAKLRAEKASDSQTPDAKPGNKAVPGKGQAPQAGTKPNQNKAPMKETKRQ

Consider “hHC-mLC (human heavy chain-mouse light chain) chimeric plasminogen (from UniProt P00747 20-580)”, for which, in test [1], the Kd stood at 3 nM, the koff stood at 0.0012 s⁻¹ and the kon amounted to 390000 M⁻¹ s⁻¹.
The matching figures for human plasminogen (natural protein): 2.2 nM, 0.0006 s⁻¹ and 270000 M⁻¹ s⁻¹.
In the case of streptokinase SK2b (natural protein), the % active site formation in the SK2b-Pg complex (MUGB cleavage), with saturating PAM (5 uM) was found to be 86% in test [2], 78% in test [3] and 33% in test [4]. In addition, the % active site formation in the SK2b-Pg complex (MUGB cleavage), without PAM in [2] was 66%; in test [3], 19%; in test [4], 18%. The Kd turned out to be 187 nM in test [5]; 73 nM in [6]; 85 nM in test [7]; 202 nM in test [8]; 240 nM in test [9]. Also, the koff in test [5] worked out at 0.0014 s⁻¹; in [6] it was 0.0012 s⁻¹; in test [7], 0.0015 s⁻¹; in [8] it was 0.0016 s⁻¹; in test [9], 0.0016 s⁻¹. In addition, the kon in test [5] came out at 8000 M⁻¹ s⁻¹; in test [6], 17000 M⁻¹ s⁻¹; in test [7] it was 18000 M⁻¹ s⁻¹; in [8], 8000 M⁻¹ s⁻¹; in test [9], 6000 M⁻¹ s⁻¹.
In test [1], mouse plasminogen (natural protein) displayed a Kd of 14 nM, an off-rate constant (koff) of 0.0033 s⁻¹ and a kon of 260000 M⁻¹ s⁻¹.
The matching figures for “mHC-hLC (mouse heavy chain-human light chain) chimeric plasminogen (from UniProt P00747 581-810)”: 16 nM, 0.0038 s⁻¹ and 240000 M⁻¹ s⁻¹.
For the substance streptokinase SK1 (natural protein), the Kd worked out at 1.9 nM in [5]; 0.4 nM in test [6]; 0.9 nM in test [7]; 1 nM in test [8]; 6.1 nM in [9]. Moreover, the koff in [5] stood at 0.0059 s⁻¹; in [6], 0.0005 s⁻¹; in test [7] it was 0.0015 s⁻¹; in [8] it was 0.0016 s⁻¹; in test [9], 0.0102 s⁻¹. Also, the kon in test [5] was 3.03e+06 M⁻¹ s⁻¹; in [6] it was 1.48e+06 M⁻¹ s⁻¹; in [7], 1.65e+06 M⁻¹ s⁻¹; in test [8], 1.57e+06 M⁻¹ s⁻¹; in test [9], 1.65e+06 M⁻¹ s⁻¹.

These data come from PMC7948469.
